# B1: Clone 2 (recombinant mAb, mouse variable regions on human IgG1) (antibody, V domains shown)
# VH: EVQLQQSGPELVKPGASVKISCKASGYSFTGYSMNWMKQSPEKSLEWIGEINPSTGGTTDNQKFKAKATLTVDKSSSTAYMQLKSLTSEDSAVYYCARSRGDYWGQGTSVTVSS
# VL: DIVLTQSPASLAVSLGQRATISCRASESVEYYGTSLMQWYQQKPGQPPKVLIYAASNVESGVPARFSGSGSGTDFSLNIHPVEEDDIAMYFCQQSRKVPWTFGGGTKLEIK
# B2: Clone 6 (recombinant mAb, mouse variable regions on human IgG1) (antibody, V domains shown)
# VH: QVQLQQSAAELARPGASVKMSCKASGYTFTSYTMHWVKQRPGQGLEWIGYINPTSGYTEYNQNFKDKTTLTADKSSSTAYMQLNSLTSEDSAVYYCAREGHRVGPAYWGQGTLVTVSA
# VL: not shown
# Biological target: SARS-CoV-2 RBD-his tag protein (SARS-CoV-2, ancestral (Wuhan-Hu-1/WA1), UniProt P0DTC2)
# Assay: ELISA
row,Binder,binding result
1,B1,binds
2,B2,binds

# Source: paper PMC8722602 (bioRxiv, 2021)
